In patent US20200024337A1 (H LUNDBECK A S, published 2020):
Substitutions are numbered along the chain they refer to. Like-named read-outs stand apart in the source and are kept apart here.

B1: mouse 2E6 (antibody, V domains shown)
VH: QVQLQQPGAELVKPGASVKLSCTASGYTFTSYWMHWMKQRPGRGLEWIGRIDPNSGTTKYNVNFKTKATLTVDKPSSTAYMHLSSLTSEDSAVYYCARLGHYGNLYAMDYWGQGTSVT
VL: QIVLTQSPAIMSASPGEKVTMTCSASSSVSYMHWYQQKSGTSPKRWIYDTSKLASGVPTRFSGSGSGTSYSLTISSMDTEDAATYYCQQWSSNPPTFGAGTKLELK
notes: also called m2E6
B2: chimeric 2E6 (antibody, V domains shown)
VH: B1 VH
VL: B1 VL
notes: also called ch2E6; Ch2E6
B3: 2E6-HLD-1 (antibody, V domains shown)
VH: QVQLVQSGAEVKKPGASVKVSCKASGYTFTSYWMHWMRQAPGQGLEWIGRIDPNSGTTKYNVNFKTRATLTVDKSTSTAYMELSSLRSEDTAVYYCARLGHYGNLYAMDYWGQGTLVT
VL: EIVLTQSPATLSLSPGERATLSCSASSSVSYMHWYQQKPGQAPRRWIYDTSKLASGVPARFSGSGSGTDYTLTISSLEPEDFAVYYCQQWSSNPPTFGQGTKLEIKR
notes: Humanized 2E6; also called h2E6-HLD-1; H2E6-HLD-1
B4: 8D9 (antibody, V domains shown)
VH: B3 VH with M108K
VL: EIVLTQSPATLSLSPGERATLSCSASSSVSYIHWYQQKPGQAPRRWIYDTSKLASGVPARFSGSGSGTDYTLTISSLEPEDFAVYYCQQWSSNPPTFGQGTKLEIK
B5: 7A10 (antibody, V domains shown)
VH: B3 VH with M108K
VL: B4 VL
notes: also called 2E6_7A10; 2E6-HLD1-7A10
B6: HDL1-3 (antibody, V domains shown)
VH: B3 VH with F64I
VL: B4 VL
notes: also called combination 3: 7A10 light chain+9C12 heavy chain
B7: 9C12 (antibody, V domains shown)
VH: B3 VH with F64I
VL: B4 VL with I32M, W46L
B8: 7C4 (antibody, V domains shown)
VH: B3 VH with S31R, L45P
VL: B4 VL with Y31F, I32M
B9: 2E6-HLD-3 (antibody, V domains shown)
VH: B3 VH with A68V
VL: B3 VL
notes: Humanized 2E6; also called h2E6-HLD-3; H2E6-HLD-3
B10: 2E6-HLD-2 (antibody, V domains shown)
VH: B3 VH with M37V
VL: B3 VL
notes: Humanized 2E6; also called h2E6-HLD-2; H2E6-HLD-2

Legend:
[1] = target: T1, …; assay: Pepscan ELISA on a synthesized peptide array (peroxidase conjugate, ABTS, CCD read-out, scale 0 to 3000) [upper panel]
T1 construct: x-axis label of the 4th bar, upper panel; also called alpha-synuclein 20-mer 121-140
Method: (§1) The binding of antibody to each of the synthesized 20 mer peptides was tested in a Pepscan based ELISA. The linear peptide array covering the entire coding sequence of alpha-synuclein, as well as all peptides with oxidized methionines or nitrosylated tyrosines, were incubated with primary antibody solution (overnight at 4° C.). After washing, the peptide arrays were incubated with a 1/1000 dilution of an antibody peroxidase conjugate (SBA,cat.nr.2010-05) for one hour at 25° C. After washing, the peroxidase substrate 2,2′-azino-di-3-ethylbenzthiazoline sulfonate (ABTS) and 2 μl/ml of 3 percent H₂O₂ were added. After one hour, the color development was measured. The color development was quantified with a charge coupled device (CCD)—camera and an image processing system. […] The results were quantified and stored into the Peplab database. Occasionally a well contains an air-bubble resulting in a false-positive value, the cards are manually inspected and any values caused by an air-bubble are scored as 0.

[2] = target: T2, …; assay: as above
T2 construct: x-axis label of the 2nd bar, upper panel
Method: as §1

[3] = target: T3, …; assay: as above
T3 construct: x-axis label of the 3rd bar, upper panel
Method: as §1

alpha-synuclein [4] = target: T4, alpha-synuclein (human, UniProt P37840 1-140); assay: SPR (Biacore 3000), IgG captured by anti-human IgG on CM5 chip, synuclein as analyte
alpha-synuclein [5] = target: T4, alpha-synuclein; assay: as above; remark: listed apart in the source
alpha-synuclein [6] = target: T4, alpha-synuclein; assay: SPR (Biacore 3000), synuclein ligand format

| Binder | KD improvement (alpha-synuclein [4]) | KD improvement (alpha-synuclein [5]) | KD improvement (alpha-synuclein [6]) | further results |
| --- | --- | --- | --- | --- |
| B1 | – | – | – | binding result [1]: binds; binding result [2]: binds; binding result [3]: binds |
| B2 | 1 fold (Ch2E6 = 1) | 1 fold (Ch2E6 = 1) | 1 fold (Ch2E6 = 1) | – |
| B3 | 2.5 fold (Ch2E6 = 1) | 2.5 fold (Ch2E6 = 1) | 2 fold (Ch2E6 = 1) | – |
| B4 | – | 8.7 fold (Ch2E6 = 1) | – | – |
| B5 | – | 10.3 fold (Ch2E6 = 1) | – | Ka (alpha-synuclein [5]): 1.81e+08 M⁻¹; Kd (alpha-synuclein [5]): 5.52 nM; koff (alpha-synuclein [5]): 0.000285 s⁻¹; kon (alpha-synuclein [5]): 51700 M⁻¹ s⁻¹ |
| B6 | 45 fold (Ch2E6 = 1) | – | – | Ka (alpha-synuclein [4]): 7.94e+08 M⁻¹; Kd (alpha-synuclein [4]): 1.26 nM; koff (alpha-synuclein [4]): 0.000126 s⁻¹; kon (alpha-synuclein [4]): 99900 M⁻¹ s⁻¹ |
| B7 | – | 10 fold (Ch2E6 = 1) | – | – |
| B8 | – | 7 fold (Ch2E6 = 1) | – | – |
| B9 | – | – | 1 fold (Ch2E6 = 1) | Kd (alpha-synuclein [6]): 5.32 nM |
| B10 | – | – | 1 fold (Ch2E6 = 1) | – |
